Patent US20250387450A1 (AIKIUM, published 2025)
Changes are numbered by the printed parent chain. Each block holds one binder with its values, some of them ahead of it.

Experiments:
[1] = biological target: T1, GMERKFMSLQPSISVSEMEPNGTFSNNNSRNCTIENFKREFFP (biotinylated, position not given); experiment: ELISA: scaffold coated on plate, biotinylated peptide titrated, streptavidin-HRP fluorescence
T1 construct: also called CYSLTR2 (longer peptide of the disordered region)
T1 peptide: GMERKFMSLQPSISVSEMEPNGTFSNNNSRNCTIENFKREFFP
Procedure: (§1) Binder proteins were coated on the surface of a high binding capacity 96 well plate by incubating 100 μL of protein at 5 μg/mL in a coating solution (10 mM Tris pH 8.8, 50 mM NaCl), overnight at 4 C. The next morning, the coating solution was aspirated out and wells were washed once with 300 μL ELISA wash buffer (1×PBS, 0.05% Tween-20) and solution was aspirated out. The wells were blocked with 200 μL of a blocking buffer (1×PBS, 0.05% Tween-20, 3% BSA) at room temperature for 1 hour. After one hour, the blocking solution was aspirated out and 100 μL of biotinylated polypeptide in a binding buffer (1×PBS, 0.05% Tween-20, 0.5% BSA) at various concentrations was added to the appropriate well and incubated for 20 minutes. Peptide solution was aspirated out after 20 minutes and wells were washed 5 times with 300 μL of ELISA wash buffer. To detect the biotinylated peptide, 100 μL of streptavidin-HRP (50 ng/ml) was added to each well and incubated for 1 hour. The wells were subsequently washed 5 times with 300 μL of ELISA wash buffer. 100 μL of QuantaBlu Fluorogenic Peroxidase substrate solution was added to each well, incubated for 30 minutes and reaction stopped by adding 100 μL of stop solution. Fluorescent signal from each well was measured using a Biotek Cytation5 plate reader by exciting the fluorophore at […] and measuring emission at 420 nm. Fluorescent signals were plotted as a function of polypeptide concentration.

[2] = biological target: T2, CYSLTR2 short linear epitope peptide, SISVSEMEPNGTFSNNNSRNC (N-terminal biotin); experiment: as above
T2 peptide: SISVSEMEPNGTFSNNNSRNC
Procedure: as §1

[3] = biological target: T3, TNFRSF13B disordered region peptide, LPPELRRQRSGEVENNSDNSGRYQ (biotin label); experiment: as above
T3 construct: also called TNFRSF13B Peptide
T3 peptide: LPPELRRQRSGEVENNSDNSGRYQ
Procedure: as §1

[4] = biological target: T4, KCNA6 short linear epitope peptide, QQQEQQPASGGGGQNGQQAMS (biotin label); experiment: as above
T4 construct: also called KCNA6 Peptide
T4 peptide: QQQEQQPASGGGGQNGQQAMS
Procedure: as §1

[5] = biological target: T5, KAAG1 disordered region peptide, PGAAAAHLPRWPPPQLAASRREA (biotin label); experiment: as above
T5 construct: also called KAAG1 Peptide
T5 peptide: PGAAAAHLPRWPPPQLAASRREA
Procedure: as §1

[6] = biological target: T6, CD40LG short linear epitope peptide, NKEETKKENSFEMQKGDQNPQIAAH (biotin label); experiment: as above
T6 construct: also called CD40LG Peptide
T6 peptide: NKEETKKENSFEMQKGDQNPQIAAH
Procedure: as §1

[7] = biological target: T7, CD74 disordered region peptide (CLIP), PPKPVSKMRMATPLLMQALPMGALP (biotin label); experiment: modified sandwich ELISA, fluorescence grade by the table's key
T7 construct: also called CD74 Peptide
T7 peptide: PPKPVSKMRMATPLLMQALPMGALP
Procedure: as §1

[8] = biological target: T8, CYSLTR2 N-terminal disordered region peptide, MERKFMSLQPSISVSEMEPNGTFSNNNSRNCTIENFKREFFP (biotin label); experiment: as above
T8 construct: also called CysLT2; CysLT2r
T8 peptide: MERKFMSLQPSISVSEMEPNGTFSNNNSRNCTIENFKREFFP
Procedure: as §1

[9] = biological target: T9, CRACM disordered region polypeptide; experiment: as above
T9 construct: domain: disordered region
Procedure: as §1

[10] = biological target: T10, 25 amino acid epitope of CLIP (CD74); experiment: BLI (Octet RED), biotinylated peptide on streptavidin sensor
T10 construct: also called CLIP Peptide
Procedure: Streptavidin sensor tips for the BLI instrument were equilibrated in an equilibration buffer (1×PBS, 0.05% Tween 20, 0.5% BSA) for 5 minutes. Biotinylated polypeptide in the equilibration buffer at 0.5 μM was loaded on the streptavidin sensor over 60 s. After substrate loading, the sensor tips were washed in the equilibrating buffer for 5 minutes to block non-specific binding and to obtain a baseline reading. Peptide loaded and blocked tips were then introduced into wells containing polypeptides in the equilibrating buffer at varying concentrations. The binding and dissociation data are fit using the OCTET software to obtain kₒₙ, koff and consequently KD, the binding affinity.

[11] = biological target: T7, CD74 disordered region peptide (CLIP), …; experiment: ELISA: scaffold coated on plate, biotinylated peptide titrated, streptavidin-HRP fluorescence
Procedure: as §1

[12] = biological target: T3, TNFRSF13B disordered region peptide, …; experiment: modified sandwich ELISA, grade by the table's key
Procedure: as §1

[13] = biological target: T11, Urotensin-2 receptor N-terminal peptide, MALTPESPSSFPGLAATGSSVPEPPGGPNATLNSSWASPTEPSSLEDLVATGTI (biotin label); experiment: modified sandwich ELISA, grade by the table's key
T11 construct: also called Urotensin IIR; GPCR2 (Urotensin II)
T11 peptide: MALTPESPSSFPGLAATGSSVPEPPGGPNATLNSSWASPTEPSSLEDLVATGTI
Procedure: as §1

[14] = biological target: T8, CYSLTR2 N-terminal disordered region …; experiment: ELISA, fluorescence at 10000 nM peptide divided by the no-scaffold control
Procedure: as §1

[15] = biological target: T2, CYSLTR2 short linear epitope peptide, …; experiment: ELISA: scaffold coated on plate, N-terminally biotinylated peptide titrated, streptavidin-HRP fluorescence
Procedure: as §1

[16] = biological target: T12, MERKFMSLQPSISVSEMEPNG (N-terminal biotin); experiment: as above
T12 construct: also called CYSLTR2 N-terminal 21-mer peptide
T12 peptide: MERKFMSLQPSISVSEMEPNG
Procedure: as §1

[17] = biological target: T5, KAAG1 disordered region peptide, …; experiment: modified sandwich ELISA, grade by the table's key
Procedure: as §1

[18] = biological target: T8, CYSLTR2 N-terminal disordered region …; experiment: modified sandwich ELISA, grade by the table's key
Procedure: as §1

[19] = biological target: T5, KAAG1 disordered region peptide, …; experiment: modified sandwich ELISA, fluorescence grade by the table's key
Procedure: as §1

[20] = biological target: T8, CYSLTR2 N-terminal disordered region …; experiment: modified sandwich ELISA (FIGS. 30A, 30B)
Procedure: as §1, with “Fluorescent signals were plotted as a function of polypeptide concentration.” left out

[21] = biological target: T8, CYSLTR2 N-terminal disordered region …; experiment: ELISA: scaffold coated on plate, biotinylated peptide titrated, streptavidin-HRP fluorescence
Procedure: as §1

binding result [1]: binds
binding result [2]: binds
binding result [3]: no binding (tested: 10000 nM)
binding result [4]: no binding (tested: 10000 nM)
binding result [5]: no binding (tested: 10000 nM)
binding result [6]: no binding (tested: 10000 nM)
B1: engineered scaffold protein S194 (designed binder)
chain: MGIKEEHVINQAEYYLNPDQSGEFKFDFDGDEIFHVDMAKKETVWRLEEFGRFASFEAQGALAHIAVDKANLEIMTKRSNYTPMGGGSKARMATGALAQAGGSGGSGDTRPRFLWQLKYECHFFNGTERVRLNERCIYNQEESVRFDSDVGEYRAVTELGRPDAEQWNSQKDHLEQRRAAVDTKCRHNYGVGESFTVQGGSHHHHHH

fluorescent signal [7]: > 400000 fluorescentsignal
fluorescent signal [8]: 100000 to 250000 fluorescentsignal
fluorescent signal [9]: 100000 to 250000 fluorescentsignal
Kd [10]: 840 nM
EC50 (read off the curve) [11]: ~300 nM
binding result [2]: binds
Fold Change (Relative Binding) [14]: 18.5 x
Relative Binding (signal over the no-scaffold control) [14]: 18.5 x
B2: engineered scaffold protein S005 (designed binder)
chain: MIKEEHVIIQAEFYLNPDQSGEFMFDFDGDEIFHVDMAKKETVWRLEEFGRFASFEAQGALANIAVDKANLEIMTKRSNYTPMGDTRPRFLWQLKFECHFFNGTERVRLLERCIYNQEESVRFDSDVGEYRAVTELGRPDAEYWNSQKDLLEQRRAAVDTYCRHNYGVGESFTVQGGSHHHHHHLE
notes: Derived from MHC II; also called scaffold v1.1; v1.1
binding result [12]: no binding (tested: <5000 (fluorescence, key))
binding result [13]: no binding (tested: <5000 (fluorescence, key))

fluorescent signal [8]: 100000 to 250000 fluorescentsignal
binding result [1]: binds
binding result [3]: no binding (tested: 10000 nM)
binding result [4]: no binding (tested: 10000 nM)
binding result [5]: no binding (tested: 10000 nM)
binding result [6]: no binding (tested: 10000 nM)
binding result [15]: binds
binding result [16]: no binding (tested: 10000 nM)
B3: engineered scaffold protein S177 (designed binder)
chain: B2 chain with I9N, F13Y, M24K, N63H, F96Y, L110N, Y143Q, L150H, Y161K

fluorescent signal [7]: > 400000 fluorescentsignal
B4: engineered scaffold protein S084 (designed binder)
chain: IKEEHVIQQSEYYTNPDQSGEFQFDFDGDEIFHVDMAKKETVWRLEEFGRFASFEAQGALANIAVDKANLEIMTKRSNYTGDTRPRFNWQLKFECHFFNGTERVRLLERCNYNQEESVRFDSDVGEYRAVTELGRPDAEYWNSQKDLLEQRRAAVDTYCRHNYGVGESFTVQRRGGSHHHHHHLE
binding result [12]: no binding (tested: <5000 (fluorescence, key))
binding result [17]: no binding (tested: <5000 (fluorescence, key))
binding result [18]: no binding (tested: <5000 (fluorescence, key))
binding result [13]: no binding (tested: <5000 (fluorescence, key))

fluorescent signal [7]: > 400000 fluorescentsignal
fluorescent signal [19]: 50000 to 100000 fluorescentsignal
B5: engineered scaffold protein S055 (designed binder)
chain: GSHSMRYNYTSVSRPGRGEPRFLSEGHVDDTQFVRFDSDAASPREEPRAPWIEQEGPEYWDRNTQIYKAQAQTDRESLRNLRGYYNQSEAGSHTLQSIYGCDVGPDGRLLRGHDQYYYDGKDYISLNEDLRSWTAADTAAQITQRKWEAAREAEQRRAYLEGECVEWLRRYLENGKDKLERADGGSHHHHHHLE

fluorescent signal [7]: > 400000 fluorescentsignal
fluorescent signal [19]: 50000 to 100000 fluorescentsignal
B6: engineered scaffold protein S056 (designed binder)
chain: B5 chain with D30G, T31Q, Q32P, S92L, T94S, Q96N, G100V, Q115H, K121E, D122L

fluorescent signal [7]: > 400000 fluorescentsignal
fluorescent signal [19]: 250000 to 400000 fluorescentsignal
fluorescent signal [8]: 250000 to 400000 fluorescentsignal
EC50 (read off the curve) [11]: ~500 nM
binding result [15]: binds
binding result [16]: no binding (tested: 10000 nM)
Fold Change (Relative Binding) [14]: 37.2 x
Relative Binding (signal over the no-scaffold control) [14]: 37.2 x
fold higher affinity compared to a non-specific protein binder [20]: > 65 fold
B7: engineered scaffold protein S090 (designed binder)
chain: IKEEHSIRQNEMYLNPDQSGLFEFHLDGQPIFRVDMQKKRTKWQLEEFGRFASFEAQGALANIAVDKANLEIMTKRSNQSEAGSHSWQLIFVCEFHEGTESVRLSERCYYNQELSVSFNSDVGEYRAVTELGRPDAEYWNSQKDLLEQRRAAVDTYCRHNYGVGESFTVQRRGGSHHHHHHLE
notes: also called scaffold v1.2; v1.2
binding result [12]: no binding (tested: <5000 (fluorescence, key))

fluorescent signal [7]: > 400000 fluorescentsignal
binding result [5]: no binding (tested: 10000 nM)
binding result [21]: no binding (tested: 10000 nM)
B8: engineered scaffold protein S164 (designed binder)
chain: GIKEEHSIRQNEKYNNPDQSGNFEFHLDGQPIFRVDMQKKRTKWQLEEFGRFASFEAQGALANIAVFKINLEIMTKRSNQSEAGSHSWQLNFTCEFHEGTESVRLSERSYYNQENFVSFNSDVGEYRATTELGRPMAEYVNSQKDTLEQRRAAVDTYCRHNYGVGEYFTVQRR

fluorescent signal [7]: > 400000 fluorescentsignal
binding result [5]: no binding (tested: 10000 nM)
binding result [21]: no binding (tested: 10000 nM)
B9: engineered scaffold protein S171 (designed binder)
chain: GDTRPRFLWQLKWECHFYNGTERVRLNERCNYNQEESVRFDSDVGEYRAVTELGRPDAEFSNSQKDNLEQRRAAVDTLCRHNYGVGESFTVQRRSGGGIKEEHVINQAEYYLNPDQSGEFKFDFDGDEIFHVDMAKKETVWRLEEFGRFAIIEAYGALANIAVDKANLEIMTKQSNYT
